According to patent US20240052051A1 (Regeneron, published 2024):

Target: T1, human transferrin receptor extracellular domain with hexahistidine-myc-myc tag (REGN2431) (human, UniProt P02786 89-760)
T1 construct: also called hTFR-mmh; hmm.hTfRC
Assay: blocking ELISA: supernatant pre-mixed with 300 pM Hmm-hTFRC, hTFRC bound to immobilized human holo-Tf read
Procedure: In the blocking assay, the anti-human Transferrin goat IgG polyclonal antibody (anti-hTf pAb) was passively absorbed at a concentration of 2 micrograms/mL in PBS on a 96-well microtiter plate overnight at 4° C. […] To the same plate, human holo-Tf was then added at a concentration of 1 micrograms/mL in PBS+0.5% BSA for 2 hours at room temperature. […] After a 1-hour incubation, the mixtures were transferred to the human holo-Tf microtiter plates. […] The plates were developed using TMB substrate solution according to the manufacturer's recommended procedure and absorbance at 450 nm was measured on a Victor™ Multilabel Plate Reader.
The ability of the anti-TfR antibody to block human TFRC binding to human holo-Tf was evaluated using an ELISA-based blocking assay.

T1 sequence (P02786 other isoform, or with tags, fused parts or gaps): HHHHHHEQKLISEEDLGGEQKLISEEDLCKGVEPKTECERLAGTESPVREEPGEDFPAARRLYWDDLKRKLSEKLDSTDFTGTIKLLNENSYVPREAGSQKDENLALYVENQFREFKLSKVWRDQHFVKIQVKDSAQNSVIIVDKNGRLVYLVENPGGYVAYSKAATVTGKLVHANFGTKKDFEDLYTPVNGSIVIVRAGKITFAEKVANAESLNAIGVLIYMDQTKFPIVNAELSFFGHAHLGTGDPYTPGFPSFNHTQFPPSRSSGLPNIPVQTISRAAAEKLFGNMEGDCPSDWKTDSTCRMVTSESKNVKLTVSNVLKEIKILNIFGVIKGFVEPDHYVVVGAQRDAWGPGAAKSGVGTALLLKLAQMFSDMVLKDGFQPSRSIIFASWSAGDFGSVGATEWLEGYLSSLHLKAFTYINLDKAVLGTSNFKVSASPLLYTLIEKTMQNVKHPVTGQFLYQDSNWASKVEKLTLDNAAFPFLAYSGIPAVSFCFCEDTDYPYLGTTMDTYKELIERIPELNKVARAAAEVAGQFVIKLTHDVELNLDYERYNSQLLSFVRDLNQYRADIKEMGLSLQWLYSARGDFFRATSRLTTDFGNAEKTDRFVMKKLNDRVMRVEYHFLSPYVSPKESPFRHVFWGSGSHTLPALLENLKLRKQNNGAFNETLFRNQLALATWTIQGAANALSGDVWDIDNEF

B1: 69348 anti-hTfR scFv (VH-VK) (scFv)
scFv: QVQLVESGGGVVQPGRSLRLSCAASGFTFTTYGMHWVRQAPGKGLEWVAVIWYDGSNKYYGDSVKGRFTISRDNSKNTLYLQMNSLRVDDTAVYYCTRTHGYTRSSDGFDYWGQGTLVTVSSGGGGSGGGGSGGGGSDIQMTQSPSSLSASVGDRVTITCRASQSIRNVLGWFQQKPGKAPQRLIYAASSLQSGVPSRFSGSGSGTEFTLTISSLQPEDFATYYCLQHNFYPLTFGGGTKVEIK
notes: also called 69348 scFv (VH - VK) Format
% Blocking: 0%
